According to PMC7166090, “A bacteriophage mimic of the bacterial nucleoid-associated protein Fis” (Biochemical Journal, 2020):

Columns and labels:
His-NinH R56A = target: T1, His-NinH R56A (Bacteriophage lambda (cI857 Sam7), UniProt P03771 1-68, A15T;R56A); experiment: AUC; sedimentation velocity, ~0.6 mg/ml protein, 4°C, 50 000 rpm, scans at 260 and 280 nm, SEDFIT
T1 sequence: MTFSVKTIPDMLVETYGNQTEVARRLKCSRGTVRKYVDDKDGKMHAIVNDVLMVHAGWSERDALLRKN

[1] = target: His-NinH S29A R30A (bacteriophage λ) (UniProt P03771); experiment: as above
His-NinH T32A = target: T2, His-NinH T32A (Bacteriophage lambda (cI857 Sam7), UniProt P03771 1-68, A15T;T32A); experiment: as above
T2 sequence: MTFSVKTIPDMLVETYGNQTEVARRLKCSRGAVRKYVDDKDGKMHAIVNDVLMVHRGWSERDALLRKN

[2] = target: His-NinH R30A (bacteriophage λ) (UniProt P03771); experiment: as above
His-NinH S29A = target: T3, His-NinH S29A (Bacteriophage lambda (cI857 Sam7), UniProt P03771 1-68, A15T;S29A); experiment: as above
T3 sequence: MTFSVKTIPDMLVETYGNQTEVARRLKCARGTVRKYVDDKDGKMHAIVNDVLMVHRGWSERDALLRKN

His-NinH N18A = target: T4, His-NinH N18A (Bacteriophage lambda (cI857 Sam7), UniProt P03771 1-68, A15T;N18A); experiment: as above
T4 sequence: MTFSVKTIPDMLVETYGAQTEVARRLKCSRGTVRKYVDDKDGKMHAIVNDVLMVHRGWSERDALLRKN

His-NinH K35A = target: T5, His-NinH K35A (Bacteriophage lambda (cI857 Sam7), UniProt P03771 1-68, A15T;K35A); experiment: as above
T5 sequence: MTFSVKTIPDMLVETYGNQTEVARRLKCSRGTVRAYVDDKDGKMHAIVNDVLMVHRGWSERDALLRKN

[3] = target: the molecule itself; experiment: SAXS; His-NinH in solution at 4 mg/ml, Xeuss 2.0 laboratory SAXS system
NinH (native, untagged) [4] = target: T6, NinH (native, untagged) (Bacteriophage lambda (cI857 Sam7), UniProt P03771 1-68, A15T); experiment: fluorescence anisotropy; Hill 2.23; dimer concentration; MST: PBS pH 7.4 + 0.05% Tween-20, 22 C; anisotropy: 6.7 mM Tris-HCl pH 8.0, 3.3 nM (so in the source) sodium acetate, 2 mM EDTA, 25 C; EMSA (32P): 50 mM Tris-HCl pH 8.0, 5 mM EDTA, 1 mM DTT, 5% glycerol, 100 ug/ml BSA, on ice; EMSA (Cy520): PBS pH 7.4, room temp; settings: protein: recombinant; tags: none; chain copies: 2; label: 3'-fluorescein (C6 linker) on strand 1; blunt
T6 sequence: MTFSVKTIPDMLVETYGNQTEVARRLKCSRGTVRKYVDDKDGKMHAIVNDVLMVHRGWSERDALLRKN

His-NinH wt [5] = target: T7, His-NinH wt (Bacteriophage lambda (cI857 Sam7), UniProt P03771 1-68, A15T); experiment: fluorescence anisotropy; Hill 1.985; dimer concentration; MST: PBS pH 7.4 + 0.05% Tween-20, 22 C; anisotropy: 6.7 mM Tris-HCl pH 8.0, 3.3 nM (so in the source) sodium acetate, 2 mM EDTA, 25 C; EMSA (32P): 50 mM Tris-HCl pH 8.0, 5 mM EDTA, 1 mM DTT, 5% glycerol, 100 ug/ml BSA, on ice; EMSA (Cy520): PBS pH 7.4, room temp; settings: protein: recombinant; tags: N-His6; chain copies: 2; label: 3'-fluorescein (C6 linker) on strand 1; blunt
T7 sequence: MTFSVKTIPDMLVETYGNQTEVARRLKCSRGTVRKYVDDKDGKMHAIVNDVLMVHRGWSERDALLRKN

NinH (native, untagged) [6] = target: T6, NinH (native, untagged); experiment: EMSA; two complexes; MST: PBS pH 7.4 + 0.05% Tween-20, 22 C; anisotropy: 6.7 mM Tris-HCl pH 8.0, 3.3 nM (so in the source) sodium acetate, 2 mM EDTA, 25 C; EMSA (32P): 50 mM Tris-HCl pH 8.0, 5 mM EDTA, 1 mM DTT, 5% glycerol, 100 ug/ml BSA, on ice; EMSA (Cy520): PBS pH 7.4, room temp; settings: protein: recombinant; tags: none; chain copies: 2; label: 5'-32P on strand 1; blunt
NinH (native, untagged) [7] = target: T6, NinH (native, untagged); experiment: EMSA; affinity similar to DS60, more second complex; MST: PBS pH 7.4 + 0.05% Tween-20, 22 C; anisotropy: 6.7 mM Tris-HCl pH 8.0, 3.3 nM (so in the source) sodium acetate, 2 mM EDTA, 25 C; EMSA (32P): 50 mM Tris-HCl pH 8.0, 5 mM EDTA, 1 mM DTT, 5% glycerol, 100 ug/ml BSA, on ice; EMSA (Cy520): PBS pH 7.4, room temp; settings: protein: recombinant, tags: none, chain copies: 2, label: 5'-32P on strand 1
NinH (native, untagged) [8] = target: T6, NinH (native, untagged); experiment: EMSA; similar to DS60; MST: PBS pH 7.4 + 0.05% Tween-20, 22 C; anisotropy: 6.7 mM Tris-HCl pH 8.0, 3.3 nM (so in the source) sodium acetate, 2 mM EDTA, 25 C; EMSA (32P): 50 mM Tris-HCl pH 8.0, 5 mM EDTA, 1 mM DTT, 5% glycerol, 100 ug/ml BSA, on ice; EMSA (Cy520): PBS pH 7.4, room temp; settings: protein: recombinant, tags: none, chain copies: 2, label: 5'-32P on strand 1
His-NinH wt [9] = target: T7, His-NinH wt; experiment: EMSA; two complexes; MST: PBS pH 7.4 + 0.05% Tween-20, 22 C; anisotropy: 6.7 mM Tris-HCl pH 8.0, 3.3 nM (so in the source) sodium acetate, 2 mM EDTA, 25 C; EMSA (32P): 50 mM Tris-HCl pH 8.0, 5 mM EDTA, 1 mM DTT, 5% glycerol, 100 ug/ml BSA, on ice; EMSA (Cy520): PBS pH 7.4, room temp; settings: protein: recombinant; tags: N-His6; chain copies: 2; label: 5'-32P on strand 1; blunt
His-NinH wt [10] = target: T7, His-NinH wt; experiment: EMSA; single complex; MST: PBS pH 7.4 + 0.05% Tween-20, 22 C; anisotropy: 6.7 mM Tris-HCl pH 8.0, 3.3 nM (so in the source) sodium acetate, 2 mM EDTA, 25 C; EMSA (32P): 50 mM Tris-HCl pH 8.0, 5 mM EDTA, 1 mM DTT, 5% glycerol, 100 ug/ml BSA, on ice; EMSA (Cy520): PBS pH 7.4, room temp; settings: protein: recombinant; tags: N-His6; chain copies: 2; label: 5'-32P on strand 1; fork 1:2, 31 bp duplex

His-NinH R56A (from UniProt P03771 1-68) (natural protein)
stoichiometry N (His-NinH R56A): 2

His-NinH S29A R30A (from UniProt P03771 1-68) (natural protein)
stoichiometry N [1]: 2

His-NinH T32A (from UniProt P03771 1-68) (natural protein)
stoichiometry N (His-NinH T32A): 2

His-NinH R30A (from UniProt P03771 1-68) (natural protein)
stoichiometry N [2]: 2

His-NinH S29A (from UniProt P03771 1-68) (natural protein)
stoichiometry N (His-NinH S29A): 2

His-NinH N18A (from UniProt P03771 1-68) (natural protein)
stoichiometry N (His-NinH N18A): 2

His-NinH K35A (from UniProt P03771 1-68) (natural protein)
stoichiometry N (His-NinH K35A): 2

B1: N-His6-NinH (bacteriophage λ NinH, wild type) (natural protein)
chain: MTFSVKTIPDMLVEAYGNQTEVARRLKCSRGTVRKYVDDKDGKMHAIVNDVLMVHRGWSERDALLRKN
stoichiometry N [3]: 2

B2: DS20 (o-FLU20/o-SS20) (dsDNA)
DNA 1: TGGGTCAACGTGGGCAAAGA
DNA 2: TCTTTGCCCACGTTGACCCA
Kd (NinH (native, untagged) [4]): ~57 nM
Kd (His-NinH wt [5]): 43 nM

B3: DS60 (dsDNA)
DNA 1: TTTGGTCTAACTTTACCGCTACTAAATGCCGCGGATTGGTTTCGCTGAATCAGGTTATTA
DNA 2: TAATAACCTGATTCAGCGAAACCAATCCGCGGCATTTAGTAGCGGTAAAGTTAGACCAAA
binding result (NinH (native, untagged) [6]): binds

B4: BT1 (dsDNA)
DNA 1: TTTGGTCTAACTTTACCGCTACTAAATGCCGCGGATTGGTTTCGCTGAATCAGGTTATTA
DNA 2: TAATAACCTGATTCAGCGAAACCAATCCAGCGGCATTTAGTAGCGGTAAAGTTAGACCAAA
binding result (NinH (native, untagged) [7]; 1 extra A bulge in strand 2): binds

B5: BT2 (dsDNA)
DNA 1: TTTGGTCTAACTTTACCGCTACTAAATGCCGCGGATTGGTTTCGCTGAATCAGGTTATTA
DNA 2: TAATAACCTGATTCAGCGAAACCAATCCAAGCGGCATTTAGTAGCGGTAAAGTTAGACCAAA
binding result (NinH (native, untagged) [7]; 2 extra A bulge in strand 2): binds

B6: BT3 (dsDNA)
DNA 1: TTTGGTCTAACTTTACCGCTACTAAATGCCGCGGATTGGTTTCGCTGAATCAGGTTATTA
DNA 2: TAATAACCTGATTCAGCGAAACCAATCCAAAGCGGCATTTAGTAGCGGTAAAGTTAGACCAAA
binding result (NinH (native, untagged) [7]; 3 extra A bulge in strand 2): binds

B7: BB1 (dsDNA)
DNA 1: TTTGGTCTAACTTTACCGCTACTAAATGCCGCGGATTGGTTTCGCTGAATCAGGTTATTA
DNA 2: TAATAACCTGATTCAGCGAAACCAATCGGCGGCATTTAGTAGCGGTAAAGTTAGACCAAA
binding result (NinH (native, untagged) [8]; central 1 nt mismatch): binds

B8: BB5 (dsDNA)
DNA 1: TTTGGTCTAACTTTACCGCTACTAAATGCCGCGGATTGGTTTCGCTGAATCAGGTTATTA
DNA 2: TAATAACCTGATTCAGCGAAACCAATCGCAACCATTTAGTAGCGGTAAAGTTAGACCAAA
binding result (NinH (native, untagged) [8]; central 5 nt bubble): binds

B9: BB13 (dsDNA)
DNA 1: TTTGGTCTAACTTTACCGCTACTAAATGCCGCGGATTGGTTTCGCTGAATCAGGTTATTA
DNA 2: TAATAACCTGATTCAGCGAAACATTGTAGGTAAGCTTAGTAGCGGTAAAGTTAGACCAAA
binding result (NinH (native, untagged) [8]; central 13 nt bubble): binds

B10: BB20 (dsDNA)
DNA 1: TTTGGTCTAACTTTACCGCTACTAAATGCCGCGGATTGGTTTCGCTGAATCAGGTTATTA
DNA 2: TAATAACCTGATTCAGCGAATGACCGATAACGTCCACTTGAGCGGTAAAGTTAGACCAAA
binding result (NinH (native, untagged) [8]; central 20 nt bubble): binds

B11: DS50 (dsDNA)
DNA 1: GGCGACGTGATCACCAGATGATTGCTAGGCATGCTTTCCGCAAGAGAAGC
DNA 2: GCTTCTCTTGCGGAAAGCATGCCTAGCAATCATCTGGTGATCACGTCGCC
binding result (His-NinH wt [9]): binds

B12: Forked duplex FD (structured_DNA)
DNA 1: GGCGACGTGATCACCAGATGATTGCTAGGCATGCTTTCCGCAAGAGAAGC
DNA 2: GGCTTCTCTTGCGGAAAGCATGCCTAGCAATCCTGTCAGCTGCATGGAAC
binding result (His-NinH wt [10]): binds
